The data set concerns the molecule itself. The data set is described as follows: SDS-PAGE with immunoblot (denaturing); denatured samples (SDS loading buffer, 5 min 95 °C) of the extracts made for BN-PAGE. A general note: In western blotting, separated proteins are transferred to a membrane and probed.

Here are results for one protein from article PMC13534476, “The Arabidopsis SPFH protein HIR2 modulates receptor signaling and plasma membrane organization” (The EMBO Journal, 2026).

Several values for one entry are separate records, joined by “and”; a condition that tells them apart may be missing. Equal values may be shown once.

B1: HIR2-HA (natural protein, Arabidopsis thaliana, UniProt Q9SRH6 1-285, looked up)
chain: MGNLFCCVLVKQSDVAVKERFGKFQKVLNPGLQFVPWVIGDYVAGTLTLRLQQLDVQCETKTKDNVFVTVVASIQYRVLADKASDAFYRLSNPTTQIKAYVFDVIRACVPKLNLDDVFEQKNEIAKSVEEELDKAMTAYGYEILQTLIIDIEPDQQVKRAMNEINAAARMRVAASEKAEAEKIIQIKRAEGEAESKYLSGLGIARQRQAIVDGLRDSVLGFAGNVPGTSAKDVLDMVMMTQYFDTMRDIGATSKSSAVFIPHGPGAVSDVAAQIRNGLLQANNAS
notes: HIR2, Arabidopsis thaliana; also called HA-tagged HIR2; source: Nicotiana benthamiana leaves, transient expression, total protein extract
One may read the stoichiometry N as a count of units in the complex or per binding partner. On to B1, for which the “stoichiometry N” value was 2 and 4 and 6.
